# According to article PMC13627691 (2026):
# B1: ATG2A-mCherry (expressed as 3XFLAG-TEV-ATG2A-mCherry) [not stated (the printed accession is a human entry)] / GST-tagged LC3B [not stated (the printed accession is a human entry)] (parent complex)
# chain 1: MSRWLWPWSNCVKERVCRYLLHHYLGHFFQEHLSLDQLSLDLYKGSVALRDIHLEIWSVNEVLESMESPLELVEGFVGSIEVAVPWAALLTDHCTVRVSGLQLTLQPRRGPAPGAADSQSWASCMTTSLQLAQECLRDGLPEPSEPPQPLEGLEMFAQTIETVLRRIKVTFLDTVVRVEHSPGDGERGVAVEVRVQRLEYCDEAVRDPSQAPPVDVHQPPAFLHKLLQLAGVRLHYEELPAQEEPPEPPLQIGSCSGYMELMVKLKQNEAFPGPKLEVAGQLGSLHLLLTPRQLQQLQELLSAVSLTDHEGLADKLNKSRPLGAEDLWLIEQDLNQQLQAGAVAEPLSPDPLTNPLLNLDNTDLFFSMAGLTSSVASALSELSLSDVDLASSVRSDMASRRLSAQAHPAGKMAPNPLLDTMRPDSLLKMTLGGVTLTLLQTSAPSSGPPDLATHFFTEFDATKDGPFGSRDFHHLRPRFQRACPCSHVRLTGTAVQLSWELRTGSRGRRTTSMEVHFGQLEVLECLWPRGTSEPEYTEILTFPGTLGSQASARPCAHLRHTQILRRVPKSRPRRSVACHCHSELALDLANFQADVELGALDRLAALLRLATVPAEPPAGLLTEPLPAMEQQTVFRLSAPRATLRLRFPIADLRPEPDPWAGQAVRAEQLRLELSEPQFRSELSSGPGPPVPTHLELTCSDLHGIYEDGGKPPVPCLRVSKALDPKSTGRKYFLPQVVVTVNPQSSSTQWEVAPEKGEELELSVESPCELREPEPSPFSSKRTMYETEEMVIPGDPEEMRTFQSRTLALSRCSLEVILPSVHIFLPSKEVYESIYNRINNDLLMWEPADLLPTPDPAAQPSGFPGPSGFWHDSFKMCKSAFKLANCFDLTPDSDSDDEDAHFFSVGASGGPQAAAPEAPSLHLQSTFSTLVTVLKGRITALCETKDEGGKRLEAVHGELVLDMEHGTLFSVSQYCGQPGLGYFCLEAEKATLYHRAAVDDYPLPSHLDLPSFAPPAQLAPTIYPSEEGVTERGASGRKGQGRGPHMLSTAVRIHLDPHKNVKEFLVTLRLHKATLRHYMALPEQSWHSQLLEFLDVLDDPVLGYLPPTVITILHTHLFSCSVDYRPLYLPVRVLITAETFTLSSNIIMDTSTFLLRFILDDSALYLSDKCEVETLDLRRDYVCVLDVDLLELVIKTWKGSTEGKLSQPLFELRCSNNVVHVHSCADSCALLVNLLQYVMSTGDLHPPPRPPSPTEIAGQKLSESPASLPSCPPVETALINQRDLADALLDTERSLRELAQPSGGHLPQASPISVYLFPGERSGAPPPSPPVGGPAGSLGSCSEEKEDEREEEGDGDTLDSDEFCILDAPGLGIPPRDGEPVVTQLHPGPIVVRDGYFSRPIGSTDLLRAPAHFPVPSTRVVLREVSLVWHLYGGRDFGPHPGHRARTGLSGPRSSPSRCSGPNRPQNSWRTQGGSGRQHHVLMEIQLSKVSFQHEVYPAEPATGPAAPSQELEERPLSRQVFIVQELEVRDRLASSQINKFLYLHTSERMPRRAHSNMLTIKALHVAPTTNLGGPECCLRVSLMPLRLNVDQDALFFLKDFFTSLVAGINPVVPGETSAEARPETRAQPSSPLEGQAEGVETTGSQEAPGGGHSPSPPDQQPIYFREFRFTSEVPIWLDYHGKHVTMDQVGTFAGLLIGLAQLNCSELKLKRLCCRHGLLGVDKVLGYALNEWLQDIRKNQLPGLLGGVGPMHSVVQLFQGFRDLLWLPIEQYRKDGRLMRGLQRGAASFGSSTASAALELSNRLVQAIQATAETVYDILSPAAPVSRSLQDKRSARRLRRGQQPADLREGVAKAYDTVREGILDTAQTICDVASRGHEQKGLTGAVGGVIRQLPPTVVKPLILATEATSSLLGGMRNQIVPDAHKDHALKWRSDSAQD
# chain 2: not shown
# Variants of: B1
# Assay: bead-based binding assay (GSH beads, confocal imaging of mCherry fluorescence); 5 µM GST-tagged bait on Glutathione Sepharose 4B beads; 0.5 µM ATG2A-mCherry or ATG2A-LIR-mCherry; SEC150 buffer; N = 3; parent: 17; read off a plot
row,Variant,response
1,"chain 1 F1362A, chain 1 C1363A, chain 1 I1364A, chain 1 L1365A",~0.7%
